Data reported in paper PMC3392113 (Human Molecular Genetics, 2012).

Biological target: the molecule itself
Experiment: SDS-PAGE

B1: MBP-ΔN597 (human DISC1 amino acids 326-597 fused to maltose-binding protein) (domain or fragment, UniProt Q9NRI5 326-597, looked up)
chain: WDTLLRKWEPVLRDCLLRNRRQMEVISLRLKLQKLQEDAVENDDYDKAETLQQRLEDLEQEKISLHFQLPSRQPALSSFLGHLAAQVQAALRRGATQQASGDDTHTPLRMEPRLLEPTAQDSLHVSITRRDWLLQEKQQLQKEIEALQARMFVLEAKDQQLRREIEEQEQQLQWQGCDLTPLVGQLSLGQLQEVSKALQDTLASAGQIPFHAEPPETIRSLQERIKSLNLSLKEITTKVCMSEKFCSTLRKKVNDIETQLPALLEAKMHAIS
With B1 the “stoichiometry N” value was 2.
